± gives the uncertainty stated by the source.
B1: Telomeric repeat-binding factor 2, residues 489 to 542; numbered along this chain, Q15554 (parent)
chain: KQKWTVEESEWVKAGVQKYGEGNWAAISKNYPFVNRTAVMIKDRWRTMKRLGMN

Variants of: B1
Experiment: abundance fitness (aPCA) (normalised: wild type 0, dead -1); higher = more abundant; growth selection in yeast, the domain comes from the species named
Conditions: Homo sapiens

| Variant | abundance fitness |
| --- | --- |
| A26M | -0.493 ± 0.28 |
| A26T | 0.065 ± 0.22 |
| A26Q | 0.078 ± 0.15 |
| F33T | -0.826 ± 0.19 |
| F33S | -0.972 ± 0.2 |
| F33D | -1.02 ± 0.35 |
| F33N | -0.499 ± 0.43 |
| F33A | -0.745 ± 0.061 |
| F33W | -0.166 ± 0.054 |
| F33C | -0.899 ± 0.29 |
| F33I | -0.834 ± 0.34 |
| F33K | -0.715 ± 0.21 |
| F33V | -0.604 ± 0.075 |
| F33R | -0.845 ± 0.079 |
| F33P | -0.871 ± 0.087 |
| F33H | -0.212 ± 0.26 |
| F33M | -0.652 ± 0.08 |
| F33L | -0.65 ± 0.09 |
| F33Q | -0.817 ± 0.28 |
| S28G | -0.171 ± 0.085 |
| S28Y | -0.458 ± 0.3 |
| S28K | 0.114 ± 0.068 |
| S28Q | 0.11 ± 0.13 |
| S28F | -0.098 ± 0.11 |

| Variant | abundance fitness |
| --- | --- |
| S28D | -0.887 ± 0.42 |
| S28H | 0.101 ± 0.23 |
| S28N | 0.163 ± 0.14 |
| S28M | -0.568 ± 0.26 |
| S28W | 0.036 ± 0.095 |
| S28T | 0.038 ± 0.14 |
| S28P | -0.726 ± 0.31 |
| S28I | 0.196 ± 0.14 |
| S28V | 0.121 ± 0.076 |
| S28C | -0.17 ± 0.12 |
| S28A | 0.142 ± 0.097 |
| V39G | -0.005 ± 0.054 |
| V39F | -0.274 ± 0.08 |
| V39H | -0.442 ± 0.23 |
| V39R | 0.032 ± 0.061 |
| V39S | 0.057 ± 0.049 |
| V39A | 0.091 ± 0.087 |
| V39P | 0.059 ± 0.12 |
| V39C | 0.203 ± 0.086 |
| V39Y | -0.015 ± 0.11 |
| V39Q | 0.001 ± 0.087 |
| V39I | -0.075 ± 0.13 |
| V39M | 0.1 ± 0.1 |
| V39E | 0.008 ± 0.07 |

| Variant | abundance fitness |
| --- | --- |
| V39N | 0.253 ± 0.089 |
| V39T | 0.135 ± 0.06 |
| V39L | -0.154 ± 0.055 |
| R44C | -0.214 ± 0.054 |
| R44W | -0.397 ± 0.084 |
| R44E | -0.59 ± 0.093 |
| R44Q | -0.079 ± 0.051 |
| R44I | -0.498 ± 0.081 |
| R44G | -0.466 ± 0.058 |
| R44S | -0.508 ± 0.045 |
| R44V | -0.325 ± 0.055 |
| R44D | -1.03 ± 0.19 |
| R44A | -0.236 ± 0.048 |
| R44M | -0.234 ± 0.076 |
| R44Y | -0.218 ± 0.062 |
| R44P | -0.863 ± 0.08 |
| R44K | -0.124 ± 0.049 |
| R44N | -0.662 ± 0.067 |
| R44F | -0.185 ± 0.048 |
| R44L | -0.22 ± 0.04 |
| R44H | 0.125 ± 0.045 |
| N30W | -0.431 ± 0.092 |
| N30D | -0.474 ± 0.18 |
| N30L | -0.287 ± 0.064 |

| Variant | abundance fitness |
| --- | --- |
| N30T | -0.338 ± 0.22 |
| N30K | -0.16 ± 0.088 |
| N30F | -0.422 ± 0.2 |
| N30S | -0.113 ± 0.058 |
| N30Y | -0.284 ± 0.082 |
| N30C | -0.402 ± 0.099 |
| N30E | 0.077 ± 0.12 |
| N30A | -0.042 ± 0.071 |
| N30Q | -0.092 ± 0.18 |
| N30P | -0.963 ± 0.18 |
| N30R | -0.508 ± 0.11 |
| N30M | -0.314 ± 0.17 |
| K42Y | -0.448 ± 0.2 |
| K42L | -0.571 ± 0.071 |
| K42N | -0.417 ± 0.18 |
| K42E | -0.016 ± 0.081 |
| K42F | -0.544 ± 0.27 |
| K42T | -0.614 ± 0.18 |
| K42V | -0.77 ± 0.082 |
| K42G | -0.309 ± 0.069 |
| K42D | -0.457 ± 0.23 |
| K42M | -0.207 ± 0.057 |
| K42W | -0.653 ± 0.13 |
| K42H | -0.881 ± 0.42 |

| Variant | abundance fitness |
| --- | --- |
| K42P | -0.961 ± 0.19 |
| K42A | -0.141 ± 0.065 |
| K42R | 0.035 ± 0.041 |
| K42S | -0.16 ± 0.076 |
| K42C | -0.124 ± 0.12 |
| K29W | -0.54 ± 0.13 |
| K29L | -0.129 ± 0.076 |
| K29M | -0.091 ± 0.091 |
| K29R | -0.281 ± 0.088 |
| K29N | 0.205 ± 0.45 |
| K29H | -0.042 ± 0.23 |
| K29T | -0.051 ± 0.12 |
| K29Y | -0.116 ± 0.16 |
| K29A | -0.256 ± 0.11 |
| K29D | -0.188 ± 0.15 |
| K29P | -0.626 ± 0.23 |
| K29V | -0.066 ± 0.08 |
| K29G | -0.364 ± 0.051 |
| K29C | 0.162 ± 0.13 |
| K29S | -0.082 ± 0.053 |
| K29I | -0.221 ± 0.1 |
| Y31S | -0.729 ± 0.069 |
| Y31C | -0.49 ± 0.16 |
| Y31G | -0.499 ± 0.074 |

| Variant | abundance fitness |
| --- | --- |
| Y31N | -0.539 ± 0.056 |
| Y31E | -0.757 ± 0.12 |
| Y31R | -0.626 ± 0.11 |
| Y31M | -0.431 ± 0.1 |
| Y31K | -0.535 ± 0.13 |
| Y31Q | -0.751 ± 0.05 |
| Y31P | -0.389 ± 0.22 |
| Y31F | -0.417 ± 0.26 |
| Y31H | -0.539 ± 0.094 |
| Y31D | -0.499 ± 0.28 |
| Y31W | -0.444 ± 0.1 |
| Y31T | -0.727 ± 0.051 |
| Y31V | -0.496 ± 0.11 |
| A25M | -0.018 ± 0.13 |
| A25H | -0.127 ± 0.22 |
| A25L | -0.17 ± 0.065 |
| A25R | -0.373 ± 0.12 |
| A25C | -0.091 ± 0.15 |
| A25P | -0.663 ± 0.27 |
| A25I | -0.217 ± 0.39 |
| A25E | 0.074 ± 0.11 |
| A25W | -0.146 ± 0.041 |
| A25G | -0.13 ± 0.066 |
| A25N | 0.015 ± 0.13 |

| Variant | abundance fitness |
| --- | --- |
| A25Q | 0.08 ± 0.1 |
| A25D | 0.472 ± 0.24 |
| A25F | 0.045 ± 0.13 |
| A25Y | -0.235 ± 0.1 |
| A25K | -0.448 ± 0.12 |
| V34I | -0.066 ± 0.093 |
| V34C | -0.123 ± 0.053 |
| V34Y | -0.331 ± 0.17 |
| V34L | -0.057 ± 0.071 |
| V34P | -0.49 ± 0.092 |
| V34T | 0.193 ± 0.12 |
| V34M | 0.208 ± 0.11 |
| V34E | 0.005 ± 0.044 |
| V34K | -0.304 ± 0.21 |
| V34S | -0.172 ± 0.04 |
| V34F | -0.129 ± 0.064 |
| V34N | -0.564 ± 0.22 |
| V34W | -0.366 ± 0.12 |
| V34H | 0.032 ± 0.11 |
| V34G | -0.34 ± 0.043 |
| V34D | -0.711 ± 0.16 |
| V34Q | 0.134 ± 0.17 |
| V34A | -0.16 ± 0.044 |

— the Human Domainome abundance scans (Beltran et al. 2025)
